Legend:
TDP-43 RRM2 [1] = biological target: T1, TDP-43 RRM2 (UniProt Q13148 186-267); experiment: pull-down; Anisotropy: 50 mM Tris, 100 mM NaCl, pH 8.0, 10 C, 0.1 uM probe, 0-30 uM protein (RNasin for RNA); pull-down: same buffer on Ni resin, room temperature, 1 h, eluted with 1 M NaCl; conditions: protein: recombinant; tags: N-term His6 + thrombin site + GSSGSSG linker; His removed by thrombin for anisotropy, kept for pull-down
TDP-43 RRM1 [2] = biological target: T2, TDP-43 RRM1 (UniProt Q13148 96-185); experiment: as above; conditions: protein: recombinant; tags: N-term His6 + thrombin site + GSSGSSG linker; His removed by thrombin for anisotropy, kept for pull-down
T2 sequence (Q13148 96-185): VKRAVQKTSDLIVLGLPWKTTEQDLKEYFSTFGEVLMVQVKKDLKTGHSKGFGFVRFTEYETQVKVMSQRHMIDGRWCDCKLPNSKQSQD

TDP-43 RRM1-2 [3] = biological target: T3, TDP-43 RRM1-2 (UniProt Q13148 96-267); experiment: as above; conditions: protein: recombinant; tags: N-term His6 + thrombin site + GSSGSSG linker; His removed by thrombin for anisotropy, kept for pull-down
T3 sequence (Q13148 96-267): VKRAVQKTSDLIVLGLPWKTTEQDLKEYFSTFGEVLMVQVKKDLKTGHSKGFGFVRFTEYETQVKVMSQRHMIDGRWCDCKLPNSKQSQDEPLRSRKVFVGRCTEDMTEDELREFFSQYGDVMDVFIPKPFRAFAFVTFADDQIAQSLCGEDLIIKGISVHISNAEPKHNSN

TDP-43 RRM2 [4] = biological target: T1, TDP-43 RRM2; experiment: fluorescence anisotropy; RNasin; Anisotropy: 50 mM Tris, 100 mM NaCl, pH 8.0, 10 C, 0.1 uM probe, 0-30 uM protein (RNasin for RNA); pull-down: same buffer on Ni resin, room temperature, 1 h, eluted with 1 M NaCl; conditions: protein: recombinant; tags: N-term His6 + thrombin site + GSSGSSG linker; His removed by thrombin for anisotropy, kept for pull-down; label: 5'-fluorescein
TDP-43 RRM1 [5] = biological target: T2, TDP-43 RRM1; experiment: as above; conditions: protein: recombinant; tags: N-term His6 + thrombin site + GSSGSSG linker; His removed by thrombin for anisotropy, kept for pull-down; label: 5'-fluorescein
TDP-43 RRM1-2 [6] = biological target: T3, TDP-43 RRM1-2; experiment: as above; conditions: protein: recombinant; tags: N-term His6 + thrombin site + GSSGSSG linker; His removed by thrombin for anisotropy, kept for pull-down; label: 5'-fluorescein
TDP-43 RRM2 [7] = biological target: T1, TDP-43 RRM2; experiment: fluorescence anisotropy; Anisotropy: 50 mM Tris, 100 mM NaCl, pH 8.0, 10 C, 0.1 uM probe, 0-30 uM protein (RNasin for RNA); pull-down: same buffer on Ni resin, room temperature, 1 h, eluted with 1 M NaCl; conditions: protein: recombinant; tags: N-term His6 + thrombin site + GSSGSSG linker; His removed by thrombin for anisotropy, kept for pull-down; label: 5'-fluorescein
TDP-43 RRM1 [8] = biological target: T2, TDP-43 RRM1; experiment: as above; conditions: protein: recombinant; tags: N-term His6 + thrombin site + GSSGSSG linker; His removed by thrombin for anisotropy, kept for pull-down; label: 5'-fluorescein
TDP-43 RRM1-2 [9] = biological target: T3, TDP-43 RRM1-2; experiment: as above; conditions: protein: recombinant; tags: N-term His6 + thrombin site + GSSGSSG linker; His removed by thrombin for anisotropy, kept for pull-down; label: 5'-fluorescein

T1 sequence (Q13148 186-267): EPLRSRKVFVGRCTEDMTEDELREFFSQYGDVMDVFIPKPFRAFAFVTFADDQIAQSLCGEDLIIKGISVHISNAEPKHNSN

Row | Binder | binding result (TDP-43 RRM2 [1]) | binding result (TDP-43 RRM1 [2]) | binding result (TDP-43 RRM1-2 [3]) | binding result (TDP-43 RRM2 [7]) | Kd (TDP-43 RRM1 [8]) [nM] | Kd (TDP-43 RRM1-2 [9]) [nM] | further results
1 | TTTTTTTTTTTT (ssDNA) [T12] | no binding | binds | binds | – | – | – | –
2 | UGUGUGUG (ssRNA) [Fl-(UG)4 RNA] | – | – | – | – | – | – | binding result (TDP-43 RRM2 [4]): no binding; Kd (TDP-43 RRM1 [5]): 28 ± 9 nM; Kd (TDP-43 RRM1-2 [6]): 3.5 ± 2.3 nM
3 | TTTTTTTTTTTTTTTTTTTTTTTTTTTTTT (ssDNA) [T30] | no binding | binds | binds | – | – | – | –
4 | TGTGTGTG (ssDNA) [Fl-(TG)4 ssDNA] | – | – | – | no binding | 52 ± 12 | 77 ± 4.2 | –
5 | ACACACAC (ssDNA) [Fl-(AC)4 ssDNA] | – | – | – | no binding | – | – | binding result (TDP-43 RRM1 [8]): no binding; binding result (TDP-43 RRM1-2 [9]): no binding
6 | UGUGUGUG (ssDNA, DNA with T replaced by U) [Fl-(UG)4 ssDNA] | – | – | – | no binding | 61 ± 30 | 150 ± 23 | –

From article PMC4738331, “A molecular mechanism realizing sequence-specific recognition of nucleic acids by TDP-43”
